In patent US20130177572A1 (X BODY, published 2013):

Experiments:
[1] = target: T1, human PDGFRβ (human, UniProt P09619 33-530, limits assumed); test: ELISA: plate coated with 2 ug/mL human PDGFRβ or human IgG, in vitro translated crude scFv lysate diluted 1:3, anti-flag-HRP, OD450
T1 construct: also called hPDGFRβ; recombinant human PDGFRβ
Description: (§1) A PDGFRβ binding ELISA assay was performed to assess the binding of the scFv to immobilized PDGFRβ and to determine the EC50. Specifically, 2 ug/mL of human PDGFRβ and human Fc or IgG in PBS was immobilized on Maxisorp plates at 4° C. overnight. The plate was then washed and blocked with superblock. In vitro translated crude scFv lysate was diluted 1:3 in 1×PBST. 100 ul of the diluted scFv lysate was loaded into each well of Maxisorp plates and incubated for 1 hour at room temperature. scFv that bound to immobilized PDGFRβ was detected by anti-flag antibody-HRP at 1:5000 dilution and a TMB substrate. The plate was read on a Molecular Device plate reader with end point assay at OD 450 nm.

[2] = target: T1, human PDGFRβ; test: ELISA of unpaired VL domains: plate coated with human PDGFRβ or human Fc, OD 450 nm
Description: as §1, with “In vitro translated crude scFv lysate was diluted 1:3 in 1×PBST.” left out

[3] = target: T1, human PDGFRβ; test: solution equilibrium binding: 35S-Met labelled in vitro translated protein, human PDGFRβ titrated, capture on protein A beads, scintillation counts
Description: The affinity of several scFvs was determined by solution based equilibrium binding assay. Specifically, 120 pmol of scFv RNA was translated into free protein with ³⁵S Met incorporated. The translated reaction mixture was 3-fold diluted in binding buffer containing 1×PBS with 0.025% triton, 1 mg/mL BSA and 0.1 mg/mL sssDNA. Human PDGFRβ was diluted in the same binding buffer to final concentrations from 100 nM to 0 nM. The diluted scFv mixture was incubated with hPDGFRβ in final volume of 100 ul on Kingfisher plates (Thermofisher Scientific, 97002084). Following incubation, 25 ul of protein A magnetic beads (Invitrogen) were used to capture the PDGFRβ from solution. The captured PDGFRβ was washed and eluted in kingfisher Reader (Thermofisher Scientific). The amount of scFv (labeled with ³⁵S Met) bound to the magnetic bead-immobilized hPDGFRβ was counted using a scintillation counter and the Kd was calculated with Graph Pad Prism 5.

[4] = target: T1, human PDGFRβ; test: ELISA: plate coated with 2 ug/mL human PDGFRβ or human Fc, in vitro translated crude lysate diluted 1:3, anti-flag-HRP, OD450
Description: as §1

T1 sequence (P09619 33-530 limits assumed): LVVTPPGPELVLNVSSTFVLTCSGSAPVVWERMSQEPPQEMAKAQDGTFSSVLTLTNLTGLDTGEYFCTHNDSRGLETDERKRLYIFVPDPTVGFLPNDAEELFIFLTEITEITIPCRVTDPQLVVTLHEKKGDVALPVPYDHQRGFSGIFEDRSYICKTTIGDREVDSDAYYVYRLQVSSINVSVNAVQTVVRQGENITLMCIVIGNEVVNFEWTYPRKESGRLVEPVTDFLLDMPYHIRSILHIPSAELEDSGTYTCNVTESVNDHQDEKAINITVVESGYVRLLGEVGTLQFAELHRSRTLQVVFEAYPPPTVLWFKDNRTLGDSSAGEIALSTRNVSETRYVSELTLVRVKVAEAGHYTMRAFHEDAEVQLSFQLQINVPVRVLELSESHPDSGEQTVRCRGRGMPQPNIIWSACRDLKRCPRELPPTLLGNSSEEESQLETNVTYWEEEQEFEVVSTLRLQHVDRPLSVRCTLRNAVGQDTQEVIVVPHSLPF

B1: B6 (scFv, V domains shown)
VH: QVQLVQSGAEVKKPGSSVRVSCKASGGTFSRHAISWVRQAPGQGLEWIGGILPILKTPNYAQRFQGRVTINADESTSTVYMEMSSLRSEDTAVYYCATHGGDRSYWGQGTLVTVSS
VL: EIVLTQSPGTLSLSPGERATLSCRASQSFGSNYLAWYQHKPGQAPRLLIFAASNRATGIPDRFTGSASGTDFTLTINRVEPEDLAVYYCQQYGSFPYSFGQGTKLEIK
notes: also called XB2202/B6 scFv
binding result [1]: binds

B2: D1 (scFv, V domains shown)
VH: QVQLVQSGAEVKKPGSSVRVSCKASGGTFSRHAISWVRQAPGQGLEWIGGILPILKTPNYAQRFQGRVTINADESTSTVYMEMSSLRSEDTAVYYCATHGGDRSYWGQGTLVTVSS
VL: DIVMTQTPLSLSVTPGQPAAISCKSSQSLVHRDGKTYLYWYLQKPGHSPQLLVYEASSRFSGVPDRISGSASGTQFTLNISRVEAEDVGLYYCMQSRNLPKTFGQGTKVEIK
notes: also called XB2202/D1 scFv
binding result [1]: binds

B3: F3 (scFv, V domains shown)
VH: QVQLVQSGAEVKKPGSSVRVSCKASGGTFSRHAISWVRQAPGQGLEWIGGILPILKTPNYAQRFQGRVTINADESTSTVYMEMSSLRSEDTAVYYCATHGGDRSYWGQGTLVTVSS
VL: QSVLTQPPSVSVAPGKTARITCGGNNIGSKSVHWYQQKPGQAPVLVIYYDSDRPSGIPERFSGSNSGNTATLTISRVEAGDEADYYCQVWDSSSDHWVFGGGTKLTVL
notes: also called XB2202/F3 scFv
binding result [1]: binds

B4: H5 (scFv, V domains shown)
VH: QVQLVQSGAEVKKPGSSVRVSCKASGGTFSRHAISWVRQAPGQGLEWIGGILPILKTPNYAQRFQGRVTINADESTSTVYMEMSSLRSEDTAVYYCATHGGDRSYWGQGTLVTVSS
VL: SYELTQPPSVSMAPGKTARITCGGNNLGSKIVHWYQQKPGQAPVVVIYSDRDRPSGVPERFSGSNSGNSATLTISGVEAGDEADYYCQVWDSATDHVVFGGGTKLTVL
notes: also called XB2202/H5 scFv
binding result [1]: binds

B5: G5 (scFv, V domains shown)
VH: QVQLVQSGAEVKKPGSSVRVSCKASGGTFSRHAISWVRQAPGQGLEWIGGILPILKTPNYAQRFQGRVTINADESTSTVYMEMSSLRSEDTAVYYCATHGGDRSYWGQGTLVTVSS
VL: DIQMTQSPSSLSASVGDRVTITCRASQDISSSLAWYQQKPGKAPKPLIYDASTLQTGVPSRFSGRASGTDFTLTIDSLQPEDFATYCCQQFNSYPLSFGGGTKVELKR
notes: also called XB2202/G5 scFv
binding result [1]: binds

B6: A8 VL (other)
VL domain: QAGLTQSPDFQSVTPKERVTITCRASRYIGSNLHWYQQKPDQPPKLLIKLASQSFSGVPPRFSGGGSGTDFTLTINGLEAEDAATYYCHQTGSFPYTFGQGTKLTVL
notes: unpaired VL domain; also called unpaired A8 VL domain
binding result [2]: no binding (tested: no concentration on the sheet)

B7: H11 VL (other)
VL domain: QSVLTQSPDFQSVTPKEKVTITCRASQSIGSSLHWYQQKPDQSPKLLITFASQSFSGVPSRFSGSGSGTDFTLTINSLEAEDAATYYCHQSRNLPFTFGPGTKLTVL
notes: unpaired VL domain; also called unpaired H11 VL domain
binding result [2]: no binding (tested: no concentration on the sheet)

B8: G8 VL (other)
VL domain: QSVLTQSPGTLSLSPGDRATLSCRASQSLSGTYLAWYQQKPGQAPRLLIYDASNRAAGIPKRFSGSGSRTDFTLTISRVDPADSAVYYCQQYGSALLTFGGGTKVTVL
notes: unpaired VL domain; also called unpaired G8 VL domain
binding result [2]: no binding (tested: no concentration on the sheet)

B9: C7 VL (other)
VL domain: DIVMTQTPLSLSVTPGQPASISCKSSQSLLHSDGKTHLFWYLQRPGQSPQLLIYEVSGRFSGVSERFSGSGSGTDFTLKISRVEAEDVGVYYCMQGLHIPHTFGQGTKVEIK
notes: unpaired VL domain; also called unpaired C7 VL domain
binding result [2]: no binding (tested: no concentration on the sheet)

B10: G11 VL (other)
VL domain: EIVLTQSPGTLSLSPGEGATLSCRASQSVSSRNLAWYQQKPGQAPRLLIYGGSIRASGTSTRFSGSGSGTDFTLTINRLEPEDFAVYYCQQYGDSVFTFGPGTKVDIK
notes: unpaired VL domain; also called unpaired G11 VL domain
binding result [2]: no binding (tested: no concentration on the sheet)

B11: H8 scFv (scFv, V domains shown)
VH: QVQLVQSGAEVKKPGSSVKVSCKASGGTFSSYAISWVRQAPGQGLEWMGGIIPIFGTANYAQKFQGRVTITADESTSTAYMELSSLRSEDTAVYYCAIHGGDRSYWGQGTLVTVSS
VL: QSVLTQSPGTLSLSPGERATLSCRASQSVSSNYLAWYLQKPGQAPRLLISGASSRATGIPDRFSGSGSGTDFTLTISRLEPEDFAVYYCQQYAGSPFTFGPGTKLTVL
notes: VL of the second round pool paired with XB1511 VH
Kd [3]: 24.4 nM

B12: G8 scFv (scFv, V domains shown)
VH: QVQLVQSGAEVKKPGSSVKVSCKASGGTFSSYAISWVRQAPGQGLEWMGGIIPIFGTANYAQKFQGRVTITADESTSTAYMELSSLRSEDTAVYYCAIHGGDRSYWGQGTLVTVSS
VL: QSVLTQSPGTLSLSPGDRATLSCRASQSLSGTYLAWYQQKPGQAPRLLIYDASNRAAGIPKRFSGSGSRTDFTLTISRVDPADSAVYYCQQYGSALLTFGGGTKVTVL
notes: as for B11
binding result [4]: binds

B13: B11 VL (other)
VL domain: QSVLTQSPGTLSLSPGERATLSCRASQSVSSNYLAWYQQKPGQAPRLLIYGASSRASGIPVRVSGSGSGTDFTLTISRLEPEDFAVYYCQQYGSSPWTFGQGTKLTVL
notes: unpaired VL domain; also called unpaired B11 VL domain
binding result [2]: no binding (tested: no concentration on the sheet)

B14: H11 scFv (scFv, V domains shown)
VH: QVQLVQSGAEVKKPGSSVKVSCKASGGTFSSYAISWVRQAPGQGLEWMGGIIPIFGTANYAQKFQGRVTITADESTSTAYMELSSLRSEDTAVYYCAIHGGDRSYWGQGTLVTVSS
VL: QSVLTQSPDFQSVTPKEKVTITCRASQSIGSSLHWYQQKPDQSPKLLITFASQSFSGVPSRFSGSGSGTDFTLTINSLEAEDAATYYCHQSRNLPFTFGPGTKLTVL
notes: as for B11
Kd [3]: 12.9 nM

B15: H10 scFv (scFv, V domains shown)
VH: QVQLVQSGAEVKKPGSSVKVSCKASGGTFSSYAISWVRQAPGQGLEWMGGIIPIFGTANYAQKFQGRVTITADESTSTAYMELSSLRSEDTAVYYCAIHGGDRSYWGQGTLVTVSS
VL: QSVLTQSPDFQSVSPKDKVTITCRASQSIGSSLHWYQQKPGQSPKLLIKYSSQSFSGVPSRFSGSASGTEFTLTITGLEAEDAATYYCHQSSSLPHTFGQGTKVTVL
notes: as for B11
Kd [3]: 23.2 nM

B16: A8 scFv (scFv, V domains shown)
VH: QVQLVQSGAEVKKPGSSVKVSCKASGGTFSSYAISWVRQAPGQGLEWMGGIIPIFGTANYAQKFQGRVTITADESTSTAYMELSSLRSEDTAVYYCAIHGGDRSYWGQGTLVTVSS
VL: QAGLTQSPDFQSVTPKERVTITCRASRYIGSNLHWYQQKPDQPPKLLIKLASQSFSGVPPRFSGGGSGTDFTLTINGLEAEDAATYYCHQTGSFPYTFGQGTKLTVL
notes: as for B11
binding result [4]: binds

B17: H8 VL (other)
VL domain: QSVLTQSPGTLSLSPGERATLSCRASQSVSSNYLAWYLQKPGQAPRLLISGASSRATGIPDRFSGSGSGTDFTLTISRLEPEDFAVYYCQQYAGSPFTFGPGTKLTVL
notes: unpaired VL domain; also called unpaired H8 VL domain
binding result [2]: no binding (tested: no concentration on the sheet)

B18: B11 scFv (scFv, V domains shown)
VH: QVQLVQSGAEVKKPGSSVKVSCKASGGTFSSYAISWVRQAPGQGLEWMGGIIPIFGTANYAQKFQGRVTITADESTSTAYMELSSLRSEDTAVYYCAIHGGDRSYWGQGTLVTVSS
VL: QSVLTQSPGTLSLSPGERATLSCRASQSVSSNYLAWYQQKPGQAPRLLIYGASSRASGIPVRVSGSGSGTDFTLTISRLEPEDFAVYYCQQYGSSPWTFGQGTKLTVL
notes: VL of the second round pool paired with XB1511 VH; also called XB1511/B11 scFv
binding result [4]: binds

B19: H10 VL (other)
VL domain: QSVLTQSPDFQSVSPKDKVTITCRASQSIGSSLHWYQQKPGQSPKLLIKYSSQSFSGVPSRFSGSASGTEFTLTITGLEAEDAATYYCHQSSSLPHTFGQGTKVTVL
notes: unpaired VL domain; also called unpaired H10 VL domain
binding result [2]: no binding (tested: no concentration on the sheet)
